In PMC11868609 (Communications Biology, 2025):
Values joined by “and” are separate entries in the source; they are usually repeats but may differ in a detail not shown here. Identical values can stand only once.

T1: VapC35 toxin (M. tuberculosis, UniProt P9WF67 1-135)
T1 sequence: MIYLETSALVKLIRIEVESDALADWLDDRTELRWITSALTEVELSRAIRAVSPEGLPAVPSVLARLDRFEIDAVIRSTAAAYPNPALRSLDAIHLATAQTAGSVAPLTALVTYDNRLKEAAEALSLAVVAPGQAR

B1: VapB35 antitoxin (natural protein)
chain: MNEVSIRTLNQETSKVLARVKRGEEINLTERGKVIARIIPASAGPLDSLISTGSVQPARVHGPAPRPTIPMRGGLDSGTLLERMRAEERY
B2: VapB3 antitoxin (natural protein)
chain: MLSRRTKTIVVCTLVCMARLNVYVPDELAERARARGLNVSALTQAAISAELENSATDAWLEGLEPRSTGARHDDVLGAIDAARDEFEA
B3: VapC3 toxin (natural protein)
chain: MRASPTSPPEQVVVDASAMVDLLARTSDRCSAVRARLARTAMHAPAHFDAEVLSALGRMQRAGALTVAYVDAALEELRQVPVTRHGLSSLLAGAWSRRDTLRLTDALYVELAETAGLVLLTTDERLARAWPSAHAIG

Tests used:
VapC35 toxin [1] = biological target: T1, VapC35 toxin; experiment: MST
VapC35 toxin [2] = biological target: T1, VapC35 toxin; experiment: SEC-MALS
VapC3 toxin [3] = biological target: B3; experiment: MST
VapC3 toxin [4] = biological target: B3; experiment: SEC-MALS
SEC-MALS = biological target: the molecule itself; experiment: SEC-MALS

Binder	Kd (VapC35 toxin [1])	stoichiometry N (VapC35 toxin [2])	Kd (VapC3 toxin [3])	stoichiometry N (VapC3 toxin [4])	stoichiometry N (SEC-MALS)
B1	1 nM	0.5 antitoxin chains per toxin chain (2:4) and 1 antitoxin chains per toxin chain (4:4)			
B2	~14 nM	0.5 antitoxin chains per toxin chain (2:4) and 1 antitoxin chains per toxin chain (4:4)	~7 nM	0.5 antitoxin chains per toxin chain (2:4) and 1 antitoxin chains per toxin chain (4:4)	
B3					2 subunits
